{
  "source": "patent US20180245058",
  "test_in_all_cases": "cell_activity",
  "key": {"[1]": {"target": "CCR5 ZFN with wild-type ZC linker (SBS #8266) (artificial) (UniProt P14870)", "sequence (P14870 other isoform, or with tags, fused parts or gaps)": "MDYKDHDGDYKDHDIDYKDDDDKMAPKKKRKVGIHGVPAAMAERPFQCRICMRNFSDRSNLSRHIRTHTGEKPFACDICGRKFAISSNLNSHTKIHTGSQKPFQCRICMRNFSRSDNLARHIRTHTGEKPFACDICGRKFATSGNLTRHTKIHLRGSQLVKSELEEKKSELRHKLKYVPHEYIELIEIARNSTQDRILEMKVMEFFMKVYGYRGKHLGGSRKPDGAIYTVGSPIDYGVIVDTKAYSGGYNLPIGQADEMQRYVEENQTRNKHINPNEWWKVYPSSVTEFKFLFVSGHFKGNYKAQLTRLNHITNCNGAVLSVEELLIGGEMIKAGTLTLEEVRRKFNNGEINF", "conditions": "average of 2; ZFN pair"}, "[2]": {"test_system": "CCR5 ZFN with L6a linker (artificial)", "sequence (chain, as listed by the source)": "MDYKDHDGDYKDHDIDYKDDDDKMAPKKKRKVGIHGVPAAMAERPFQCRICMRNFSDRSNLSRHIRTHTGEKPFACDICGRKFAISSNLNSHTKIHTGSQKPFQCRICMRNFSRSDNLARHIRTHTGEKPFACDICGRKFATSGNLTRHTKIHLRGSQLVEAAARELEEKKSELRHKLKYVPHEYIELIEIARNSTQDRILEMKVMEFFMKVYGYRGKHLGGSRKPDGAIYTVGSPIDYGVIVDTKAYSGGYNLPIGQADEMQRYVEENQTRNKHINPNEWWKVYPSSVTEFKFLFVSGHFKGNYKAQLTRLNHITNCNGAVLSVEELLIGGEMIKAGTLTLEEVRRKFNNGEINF", "conditions": "average of 2; ZFN pair"}, "[3]": {"test_system": "CCR5 ZFN with L7a linker (artificial)", "sequence (chain, as listed by the source)": "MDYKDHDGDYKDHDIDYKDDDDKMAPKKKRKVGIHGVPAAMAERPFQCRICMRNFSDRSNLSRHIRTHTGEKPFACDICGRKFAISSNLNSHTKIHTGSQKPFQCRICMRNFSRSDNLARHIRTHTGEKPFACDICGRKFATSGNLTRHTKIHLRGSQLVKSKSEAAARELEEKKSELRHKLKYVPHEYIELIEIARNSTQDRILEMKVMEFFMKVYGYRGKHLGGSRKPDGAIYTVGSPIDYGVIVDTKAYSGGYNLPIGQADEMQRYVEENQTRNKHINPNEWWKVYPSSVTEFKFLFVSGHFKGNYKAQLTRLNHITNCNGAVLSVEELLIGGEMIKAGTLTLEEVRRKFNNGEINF", "conditions": "ZFN pair"}, "[4]": {"test_system": "mROSA-targeted ZFN pair, Wt/L7a linkers (artificial)", "conditions": "Neuro2A, CEL-I; mock 0.4"}, "[5]": {"test_system": "mROSA-targeted ZFN pair, Wt/Wt linkers (artificial)", "conditions": "Neuro2A, CEL-I; repeats 23.2 and 18.7; mock 0.4"}, "[6]": {"test_system": "rat IgM-targeted ZFN pair including L7a linker (artificial)", "conditions": "rat C6 cells, CEL-I"}, "[7]": {"test_system": "rat IgM-targeted ZFN pair, ZC linkers (artificial)", "conditions": "rat C6 cells, CEL-I"}},
  "data": [
    {"substance": "CCR5 ZFN target, 4 bp gap", "values": [
      {"measurement": "activity", "setting": "[1]", "value": 1.2, "unit": "% NHEJ"}
    ]},
    {"substance": "CCR5 ZFN target, 5 bp gap", "values": [
      {"measurement": "activity", "setting": "[2]", "value": 39.3, "unit": "% NHEJ"},
      {"measurement": "activity", "setting": "[1]", "value": 35, "unit": "% NHEJ"}
    ]},
    {"substance": "CCR5 ZFN target, 6 bp gap", "values": [
      {"measurement": "activity", "setting": "[3]; average of 2", "value": 31.8, "unit": "% NHEJ"},
      {"measurement": "activity", "setting": "[2]", "value": 25.4, "unit": "% NHEJ"},
      {"measurement": "activity", "setting": "[1]", "value": 11.1, "unit": "% NHEJ"}
    ]},
    {"substance": "CCR5 ZFN target, 7 bp gap", "values": [
      {"measurement": "activity", "setting": "[3]; average of 2", "value": 39.6, "unit": "% NHEJ"},
      {"measurement": "activity", "setting": "[2]", "value": 5.1, "unit": "% NHEJ"}
    ]},
    {"substance": "CCR5 ZFN target, 8 bp gap", "values": [
      {"measurement": "activity", "setting": "[3]; average of 2 as printed", "value": 6.1, "unit": "% NHEJ"}
    ]},
    {"substance": "mROSA target, 6 bp gap", "values": [
      {"measurement": "activity", "setting": "[4]", "value": 7.5, "unit": "% NHEJ"},
      {"measurement": "activity", "setting": "[5]", "value": 22.6, "unit": "% NHEJ"}
    ]},
    {"substance": "rat IgM target, 6 bp gap", "values": [
      {"measurement": "activity", "setting": "[6]", "value": 2.43, "unit": "% NHEJ"},
      {"measurement": "activity", "setting": "[7]", "value": 1.93, "unit": "% NHEJ"}
    ]}
  ]
}
